Data reported in patent publication US20190390248.

Target: human prothrombin (UniProt P00734)

**Q.** Which results are given for “carinactivase-2 from Echis carinatus venom”?
**A.** percent of S-2238 hydrolysed by the thrombin formed: followed by carinactivase-2 (2.5%); Thrombin generation rate (scale: nmol thrombin/mL/min/µmol prothrombin/µmol activator): 1.91
